Consider 59 molecules from patent US20220119492A1 (MEDIKINE, published 2022).

This assay deals with T1, human IL-2Rβ (CD122 protein, Fc Tag) (27-239) (human, UniProt P14784 27-239).
T1 construct: range 27-239; Bought protein; also called hu-IL-2Rβ subunit; IL-2Rβ subunit; not shown: Fc tag of the bought protein
T1 sequence (looked up): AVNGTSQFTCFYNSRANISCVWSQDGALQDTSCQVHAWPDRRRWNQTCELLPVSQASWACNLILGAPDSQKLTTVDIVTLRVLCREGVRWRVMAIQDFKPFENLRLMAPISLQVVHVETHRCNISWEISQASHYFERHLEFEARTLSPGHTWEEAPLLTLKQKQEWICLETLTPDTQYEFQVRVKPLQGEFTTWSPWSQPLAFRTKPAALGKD
Kind of assay: phage ELISA competition. The procedure, abridged: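 In this competitive binding ELISA, test ligands compete with a phage tracer for human IL-2Rβ-Fc, and IC50 is calculated from the absorbance signal over the ligand dilution series. A 50 μL volume of phage tracer was added without washing and left for 45 min at 4° C. TMB was used to detect bound phage for 1 to 15 min at 25° C, after which stop solution was added and absorbance was read at 450 nm.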

Bridge positions count the residues as written; N and C are the ends. Ends that are not written are not given here. Where only a bound is given, the exact number is not on record here.

In general, IC50 refers to the point on the concentration scale where inhibition reaches its midpoint. A higher IC50 goes with weaker potency.

WYPCSIALLGELCDLESVHEKS [SEQ ID NO 2689] returned a half-maximal inhibitory concentration (IC50) of less than 100 µM.

The molecule RSLRESWFPCWMAKLGDLCDLE [SEQ ID NO 2695] yielded an IC50 of less than 100 µM.

With QTGSYPCWIAHLGELCDLEGSA (disulfide 7-16 (inferred)) [SEQ ID NO 2649], the IC50 is less than 100 µM.

In turn, ESKEPAFWPCWMAQLGDLCDLE [SEQ ID NO 2694] gave an IC50 of less than 100 µM.

Molecule HGGVIGWYPCWMAKVGELCDLD [SEQ ID NO 2688] displayed an IC50 of less than 100 µM.

In turn, RRWLPCWMAHVGELCDLELGN [SEQ ID NO 2684] registered an IC50 of less than 100 µM.

Molecule STGWYPCWIAEFGELCDLVKPH [SEQ ID NO 2646] registered a half-maximal inhibitory concentration (IC50) of less than 100 µM.

WYPCWIARVGELCDLEEGPVNR [SEQ ID NO 2669] displayed an IC50 of less than 100 µM.

In turn, AYRIYPCWKAQLGELCDLDNAD [SEQ ID NO 2641] yielded an IC50 of less than 100 µM.

On to WRRWYPCWMAQLGELCDLDQWT (disulfide 7-16 (inferred)) [SEQ ID NO 2639], for which the half-inhibitory concentration (IC50) was less than 100 µM.

On to RQVPKQWYPCWMAALGELCDLE (disulfide 10-19 (inferred)) [SEQ ID NO 2698], for which the IC50 was less than 100 µM.

For WYSCWIAQLGELCDLDDMGDRV [SEQ ID NO 2680], the IC50 is less than 100 µM.

Molecule QVMRLWYPCWMAQLGELCDLE [SEQ ID NO 2700] showed an IC50 of less than 100 µM.

VWFPCWFAQLGDLCDLDQDP (disulfide 5-14 (inferred)) [SEQ ID NO 2678] showed a concentration for half-maximal inhibition (IC50) of less than 100 µM.

For RRSWYPCRIAQLGELCDLDPRV (disulfide 7-16 (inferred)) [SEQ ID NO 2640], the half-inhibitory concentration (IC50) is less than 100 µM.

On to WYPCWIAQLGELCDLDAKGQRR [SEQ ID NO 2667], for which the half-maximal inhibitory concentration (IC50) is less than 100 µM.

Take RWPWYPCEIARIGELCDLEQAN [SEQ ID NO 2674]: the 50% inhibitory concentration (IC50) is less than 100 µM.

FGAFYPCWKAQLGELCDLEPVT [SEQ ID NO 2675] had a half-inhibitory concentration (IC50) of less than 100 µM.

HPVRYPCWVAQLGELCDLENGN [SEQ ID NO 2648] displayed an IC50 of less than 100 µM.

Molecule MGTGWQNYCRYAQLGELCLL [SEQ ID NO 2652] returned a half-maximal inhibitory concentration (IC50) of less than 100 µM.

MNPVGTFYPCWIAKLGELCDLQ [SEQ ID NO 2687] showed an IC50 of less than 100 µM.

The molecule YLNFNPCWTAQLGELCDLASGE [SEQ ID NO 2645] registered a concentration for half-maximal inhibition (IC50) of less than 100 µM.

Consider AVEFYPCWLARIGELCDLVEP [SEQ ID NO 2670], for which the IC50 was less than 100 µM.

In the case of WYPCWIARVGELCDME [SEQ ID NO 2672], the IC50 is less than 100 µM.

With WYPCWIARVGELCDLE [SEQ ID NO 2884], the IC50 was less than 100 µM.

On to WLPCWMAHLGDLCDLE [SEQ ID NO 2692], for which the concentration for half-maximal inhibition (IC50) was less than 100 µM.

In the case of MLGEWLCEMDQLGYLCYLDHGD [SEQ ID NO 2654], the IC50 is less than 100 µM.

Molecule WYPCWIAHLGELCDLE [SEQ ID NO 2671] gave a half-inhibitory concentration (IC50) of less than 100 µM.

With WYPCWMAHLGELCDLE [SEQ ID NO 2804], the IC50 was less than 100 µM.

WYPCWLAHLGELCDLA [SEQ ID NO 2725] yielded a 50% inhibitory concentration (IC50) of less than 100 µM.

With WYPCWLAHLGELCDLE [SEQ ID NO 2699], the IC50 was less than 100 µM.

WHPCWIAHLGELCDLE [SEQ ID NO 2718]: the concentration for half-maximal inhibition (IC50) is less than 100 µM.

WYPCWMAQLGELCDLDEAPVQP [SEQ ID NO 2701] yielded an IC50 of less than 100 µM.

As to SHLWFPCWMAQLGELCDLEGGP [SEQ ID NO 2683], the IC50 is less than 100 µM.

WYSCWIAQIGELCDLE [SEQ ID NO 2686] displayed an IC50 of less than 100 µM.

For WHPCWLARVGDLCDLD [SEQ ID NO 2696], the concentration for half-maximal inhibition (IC50) was less than 100 µM.

Molecule WFPCWLAQLGELCDKE [SEQ ID NO 2681] showed an IC50 of less than 100 µM.

On to AHWSQPCWTAQLGELCDLDMGD (disulfide 7-16 (inferred)) [SEQ ID NO 2647], for which the half-inhibitory concentration (IC50) is less than 100 µM.

For the molecule SRSAGEYYPCWLAQLGELCDLA [SEQ ID NO 2697], the IC50 was less than 100 µM.

Take TGWWYPCWMAQLGELCDLQQT [SEQ ID NO 2650]: the IC50 is less than 100 µM.

Regarding RDIWWPCWVAQLGELCDLDDPQ [SEQ ID NO 2702], the 50% inhibitory concentration (IC50) is less than 100 µM.

As for QRNSFPCWLAQLGDLCDLGDWA [SEQ ID NO 2642], the IC50 was less than 100 µM.

For WYPCWLAKLGELCDLDRAEALP [SEQ ID NO 2677], the IC50 was less than 100 µM.

Molecule WYPCWLAQLGELCDLD [SEQ ID NO 2691] yielded an IC50 of less than 100 µM.

WYPCWLAQVGELCDLD [SEQ ID NO 2885] registered an IC50 of less than 100 µM.

With RREWYPCWIAQVGELCDLPLI (disulfide 7-16 (inferred)) [SEQ ID NO 2673], the IC50 was less than 100 µM.

In turn, YWCWFARVGELCDLDDGGVPS [SEQ ID NO 2685] yielded an IC50 of less than 100 µM.

As to DLWQPCWMARLGELCDLKG [SEQ ID NO 2651], the 50% inhibitory concentration (IC50) was less than 100 µM.

Take SATWYPCFLANLGELCDLEQEN [SEQ ID NO 2703]: the half-inhibitory concentration (IC50) was less than 100 µM.

In turn, HGRWFPCWMAQVGDLCDLEHSN [SEQ ID NO 2676] showed a concentration for half-maximal inhibition (IC50) of less than 100 µM.

WYPCWIAQLGELCDLV [SEQ ID NO 2682]: the IC50 was less than 100 µM.

EQRNRQWWPCWLARLGDLCDLD [SEQ ID NO 2690] came in with an IC50 of less than 100 µM.

Molecule WYPCGVAQPGDLCDLE [SEQ ID NO 2653] returned a half-inhibitory concentration (IC50) of less than 100 µM.

With QPAWLPCWLAQLGELCDLGTGA [SEQ ID NO 2643], the IC50 was less than 100 µM.

On to ETLGSVWYPCWIASIGELCDLD [SEQ ID NO 2679], for which the IC50 was less than 100 µM.

TNNFYPCWLAKLGDLCDFDDLN [SEQ ID NO 2668] yielded a concentration for half-maximal inhibition (IC50) of less than 100 µM.

WDGWECGMDHDGWVCEFWGE [SEQ ID NO 2655] displayed an IC50 of less than 100 µM.

With SRFWQPCWMAQLGELCHLDPQM [SEQ ID NO 2644], the IC50 is less than 100 µM.

The molecule RPSWAPCWLAQVGELCDLDHPE [SEQ ID NO 2693] registered an IC50 of less than 100 µM.
